Experimental data: publication doi:10.1101/789552 (bioRxiv, 2019)
Like-named read-outs stand apart in the source and are kept apart here.

Key:
Experiment in all cases: non-reducing SDS-PAGE with Western blot
[1] = molecular target: the molecule itself
[2] = molecular target: the molecule itself; remark: listed apart in the source
[3] = molecular target: the molecule itself; remark: listed apart in the source

B1: CAP2 monomer (endogenous, human hippocampus) (natural protein, human (endogenous in hippocampus), UniProt P40123 1-477, looked up)
chain: MANMQGLVERLERAVSRLESLSAESHRPPGNCGEVNGVIAGVAPSVEAFDKLMDSMVAEFLKNSRILAGDVETHAEMVHSAFQAQRAFLLMASQYQQPHENDVAALLKPISEKIQEIQTFRERNRGSNMFNHLSAVSESIPALGWIAVSPKPGPYVKEMNDAATFYTNRVLKDYKHSDLRHVDWVKSYLNIWSELQAYIKEHHTTGLTWSKTGPVASTVSAFSVLSSGPGLPPPPPPLPPPGPPPLFENEGKKEESSPSRSALFAQLNQGEAITKGLRHVTDDQKTYKNPSLRAQGGQTQSPTKSHTPSPTSPKSYPSQKHAPVLELEGKKWRVEYQEDRNDLVISETELKQVAYIFKCEKSTIQIKGKVNSIIIDNCKKLGLVFDNVVGIVEVINSQDIQIQVMGRVPTISINKTEGCHIYLSEDALDCEIVSAKSSEMNILIPQDGDYREFPIPEQFKTAWDGSKLITEPAEIMA
stoichiometry N [1]: 2

B2: CAP2 (endogenous, mouse hippocampus) (natural protein, mouse (endogenous in hippocampus), UniProt Q9CYT6 1-476, looked up)
chain: MTDMAGLMERLERAVIRLEQLSAGLDGPPRGCGEVNGVNGGVAPSVEAFDKLINSMVAEFLKNSRVLAGDVETHAEMVHGAFQAQRAFLLMVSQYQQPQENEVAVLLKPISEKIQEIQTFRERNRGSNMFNHLSAVSESIAALGWIAVSPKPGPYVKEMNDAATFYTNRVLKDYKHSDLRHVDWVRSYLNIWSELQAYIREHHTTGLTWSKTGPVASTASAFSILSSGPGLPPPPPPPPPPGPPPPFENEDKKEEPSPSRSALFAQLNQGEAITKGLRHVTDDKKTYKNPSLRAQGQIRSPTKTHTPSPTSPKSNSPQKHTPVLELEGKKWRVEYQEDRNDLVISETELKQVAYIFKCDKSTLQIKGKVNSITVDNCKKFGLVFDHVVGIVEVINSKDIQIQVMGRVPTISINKTEGCHLYLSEDALDCEIVSAKSSEMNVLVPQDDDYREFPIPEQFKTIWDGSKLVTEPAEIMA
stoichiometry N [1]: 2

B3: Streptag-CAP2 (natural protein, UniProt Q9CYT6 1-476, looked up)
chain: MTDMAGLMERLERAVIRLEQLSAGLDGPPRGCGEVNGVNGGVAPSVEAFDKLINSMVAEFLKNSRVLAGDVETHAEMVHGAFQAQRAFLLMVSQYQQPQENEVAVLLKPISEKIQEIQTFRERNRGSNMFNHLSAVSESIAALGWIAVSPKPGPYVKEMNDAATFYTNRVLKDYKHSDLRHVDWVRSYLNIWSELQAYIREHHTTGLTWSKTGPVASTASAFSILSSGPGLPPPPPPPPPPGPPPPFENEDKKEEPSPSRSALFAQLNQGEAITKGLRHVTDDKKTYKNPSLRAQGQIRSPTKTHTPSPTSPKSNSPQKHTPVLELEGKKWRVEYQEDRNDLVISETELKQVAYIFKCDKSTLQIKGKVNSITVDNCKKFGLVFDHVVGIVEVINSKDIQIQVMGRVPTISINKTEGCHLYLSEDALDCEIVSAKSSEMNVLVPQDDDYREFPIPEQFKTIWDGSKLVTEPAEIMA
stoichiometry N [2]: 2

B4: Myc-CAP2 (natural protein, UniProt Q9CYT6 1-476, looked up)
chain: MTDMAGLMERLERAVIRLEQLSAGLDGPPRGCGEVNGVNGGVAPSVEAFDKLINSMVAEFLKNSRVLAGDVETHAEMVHGAFQAQRAFLLMVSQYQQPQENEVAVLLKPISEKIQEIQTFRERNRGSNMFNHLSAVSESIAALGWIAVSPKPGPYVKEMNDAATFYTNRVLKDYKHSDLRHVDWVRSYLNIWSELQAYIREHHTTGLTWSKTGPVASTASAFSILSSGPGLPPPPPPPPPPGPPPPFENEDKKEEPSPSRSALFAQLNQGEAITKGLRHVTDDKKTYKNPSLRAQGQIRSPTKTHTPSPTSPKSNSPQKHTPVLELEGKKWRVEYQEDRNDLVISETELKQVAYIFKCDKSTLQIKGKVNSITVDNCKKFGLVFDHVVGIVEVINSKDIQIQVMGRVPTISINKTEGCHLYLSEDALDCEIVSAKSSEMNVLVPQDDDYREFPIPEQFKTIWDGSKLVTEPAEIMA
stoichiometry N [3]: 2

B5: CAP2 (endogenous, rat hippocampus and primary hippocampal neurons) (natural protein, UniProt P52481 1-477, looked up)
chain: MADMLGLMQRLEFAVSRLERLSSGLHEPPGGCGEVNSLSRGIVAPSVEAFDKLINSMVAEFLKNSRVLAGDVETHAEMVHGAFQAQRAFLLMVSQHQQPQENEVAVLLKPISEKIQEIQTFRERNRGSDMFNHLSAVSESIAALGWIAVSPKPGPYVKEMNDAATFYTNRVLRDYKHSDLRHVDWVRSYLKIWSELQAYIKEHHTTGLTWSKTGPVASTASAFSILSSGPGLPPPPPPPPPPGPPPPFENEGGKEEPSPSRSALFAQLNQGEAITKGLRHVTDDKKIYKNPSLRAQGQIRSPTKTRTPSPTSSKSNSPQKHAPVLELEGKKWRVEYQEDRNDLVISETELKQVAYIFKCDKSTLQIKGKVNSITVDNCKKFGLVFDHVVGIVEVINSKDIQIQVMGRVPTISINKTEGCHLYLSKDALDCEIVSAKSSEMNVLVPQGDDYREFPIPEQFKTIWDGSKLITEPAEIMA
stoichiometry N [1]: 2
